Drawing on article PMC7327492, this text covers Kd and fold PP2A-B56 bound against wt FoxO3 for two substances.

The target in one assay is Recombinant B56α (UniProt Q15172). Description: ITC; purified full-length recombinant B56α and synthetic ADAM17 peptides. On the technique in general: In ITC the heat of successive injections is recorded.
The target of a further assay is YFP-FoxO3 H-C. Description: co-IP; YFP-FoxO3 constructs transfected into HeLa cells, purified using YFP resin, PP2A-B56 binding determined by Western blotting. On the technique in general: In western blotting, separated proteins are transferred to a membrane and probed.
In the next assay the target is YFP-FoxO3 I-C. The description is as above.
In the next assay the target is YFP-FoxO3 L-C. The assay is described as above.

A word on the pKd: it is the Kd on a negative log10 scale, so that one unit is a factor of ten.

pKd: −log10 of the molar value.

Sequence of PP2A-B56 (endogenous holoenzyme of HeLa cells) (Q15172 whole entry): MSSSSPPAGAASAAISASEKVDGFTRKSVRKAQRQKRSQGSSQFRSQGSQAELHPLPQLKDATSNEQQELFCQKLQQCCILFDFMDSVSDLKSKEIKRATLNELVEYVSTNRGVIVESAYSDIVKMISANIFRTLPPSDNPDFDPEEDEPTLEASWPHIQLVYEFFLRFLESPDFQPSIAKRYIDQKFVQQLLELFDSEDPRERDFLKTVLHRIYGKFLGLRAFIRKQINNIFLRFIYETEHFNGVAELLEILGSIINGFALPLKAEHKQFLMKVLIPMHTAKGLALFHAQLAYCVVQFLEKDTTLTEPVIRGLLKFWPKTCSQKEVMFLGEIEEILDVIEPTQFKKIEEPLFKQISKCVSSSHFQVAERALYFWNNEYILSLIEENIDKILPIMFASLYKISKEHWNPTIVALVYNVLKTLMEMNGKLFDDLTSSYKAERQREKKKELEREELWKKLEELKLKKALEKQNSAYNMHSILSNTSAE
Sequence of PP2A-B56 (endogenous holoenzyme of HeLa cells) (P30153 whole entry): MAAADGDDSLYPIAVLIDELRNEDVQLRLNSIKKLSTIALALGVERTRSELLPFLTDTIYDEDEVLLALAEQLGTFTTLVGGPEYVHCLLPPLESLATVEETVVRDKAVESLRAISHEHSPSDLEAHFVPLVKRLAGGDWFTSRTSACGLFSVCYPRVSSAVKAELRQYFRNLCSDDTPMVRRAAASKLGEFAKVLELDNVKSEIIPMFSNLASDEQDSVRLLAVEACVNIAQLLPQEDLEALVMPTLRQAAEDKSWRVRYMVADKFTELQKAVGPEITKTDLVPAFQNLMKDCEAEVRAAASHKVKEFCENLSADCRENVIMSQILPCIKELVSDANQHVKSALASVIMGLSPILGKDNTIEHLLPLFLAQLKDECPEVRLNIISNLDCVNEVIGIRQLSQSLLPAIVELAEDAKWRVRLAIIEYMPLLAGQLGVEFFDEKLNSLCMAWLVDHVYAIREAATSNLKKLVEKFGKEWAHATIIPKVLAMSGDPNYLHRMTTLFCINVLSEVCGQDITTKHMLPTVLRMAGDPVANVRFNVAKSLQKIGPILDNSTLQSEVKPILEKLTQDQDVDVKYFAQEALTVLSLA
Sequence of PP2A-B56 (endogenous holoenzyme of HeLa cells) (P67775 whole entry): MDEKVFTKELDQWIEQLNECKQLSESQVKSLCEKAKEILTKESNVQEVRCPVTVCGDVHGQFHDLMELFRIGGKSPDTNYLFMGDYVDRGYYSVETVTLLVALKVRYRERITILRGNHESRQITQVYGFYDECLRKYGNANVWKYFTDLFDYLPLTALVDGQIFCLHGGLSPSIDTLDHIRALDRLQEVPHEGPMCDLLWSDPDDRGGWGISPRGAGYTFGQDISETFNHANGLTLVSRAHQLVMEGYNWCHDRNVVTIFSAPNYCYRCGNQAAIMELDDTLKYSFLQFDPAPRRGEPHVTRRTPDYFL

As to “synthetic ADAM17 peptide engineered for optimal binding (LDTIQEEE)”, the pKd in the assay with Recombinant B56α is 6.05.
Take “PP2A-B56 (endogenous holoenzyme of HeLa cells) (from UniProt Q15172 1-486; P30153 1-589; P67775 1-309) (complex)”: the fold PP2A-B56 bound against wt FoxO3 with YFP-FoxO3 H-C came to 10 fold; with YFP-FoxO3 I-C it was 4 fold; with YFP-FoxO3 L-C, 0.5 fold.
